Measurements from paper PMC11198818, “Positive charges promote the recognition of proteins by the chaperone SlyD from Escherichia coli” (PLOS ONE, 2024).
Positions count from the first letter of the chain named. cellulose membrane = Whatman 540 cellulose membrane solid support derivatized with two β-Ala residues; βAla = NCCC(=O)O

Key:
[1] = molecular target: C-terminally hexahistidine-tagged SlyD from Escherichia coli (E. coli) (UniProt P0A9K9); experiment: ITC; VP-ITC, 30°C, 10 mM potassium phosphate pH 7.6 or 7.8; His-tagged SlyD or variant 30 μM in the cell; HiPIP precursor injected, 200 μM (Fig 3) or 100 μM (Fig 4)
[2] = molecular target: T1, SlyD from Escherichia coli, C-terminally tagged with a Strep-tag II (E. coli, UniProt P0A9K9 1-196, 35S-methionine label (peptide arrays)); experiment: peptide or protein array; 13-mer peptides synthesised in spots on cellulose membrane; 35S-methionine-labelled Strep-tagged SlyD incubated 2 h at room temperature, washed in TBS (31 mM Tris-HCl pH 7.6, 170 mM NaCl, 6.4 mM KCl), phosphorimaging; conditions: both partners purified
T1 construct: SlyD, chaperone and FKBP-family prolyl isomerase, Escherichia coli; also called Strep-tagged SlyD; 35S-labeled SlyD; source: E. coli BW25113 ΔdnaK (pBW-slyD-strep), soluble, purified (StrepTactin) for the peptide arrays; not shown: Strep-tag II, C-terminal, kept
T1 sequence: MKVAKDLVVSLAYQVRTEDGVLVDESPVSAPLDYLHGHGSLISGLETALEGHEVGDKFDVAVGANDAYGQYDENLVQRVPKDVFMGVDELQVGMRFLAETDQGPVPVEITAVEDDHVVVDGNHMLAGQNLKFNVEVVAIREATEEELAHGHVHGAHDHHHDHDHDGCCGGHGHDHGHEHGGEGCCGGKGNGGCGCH

[3] = molecular target: T2, SlyD D101A, C-terminally His-tagged (E. coli, UniProt P0A9K9 1-196, D101A); experiment: ITC; VP-ITC, 30°C, 10 mM potassium phosphate pH 7.6 or 7.8; His-tagged SlyD or variant 30 μM in the cell; HiPIP precursor injected, 200 μM (Fig 3) or 100 μM (Fig 4); conditions: both partners purified
T2 construct: SlyD, Escherichia coli; not shown: His6, C-terminal, kept
T2 sequence: T1 sequence with D101A

[4] = molecular target: T3, SlyD E108A, C-terminally His-tagged (E. coli, UniProt P0A9K9 1-196, E108A); experiment: as above; conditions: both partners purified
T3 construct: SlyD, Escherichia coli; not shown: His6, C-terminal, kept
T3 sequence: T1 sequence with E108A

[5] = molecular target: T4, C-terminally hexahistidine-tagged SlyD from Escherichia coli (E. coli, UniProt P0A9K9 1-196); experiment: as above; conditions: both partners purified
T4 construct: SlyD, chaperone and FKBP-family prolyl isomerase, Escherichia coli; also called His-tagged SlyD; wild type; not shown: His6, C-terminal, kept
T4 sequence: T1 sequence

[6] = molecular target: T5, C-terminally hexahistidine-tagged SlyD from Escherichia coli (E. coli, UniProt P0A9K9 1-196); experiment: ITC
T5 chain: T1 sequence

[7] = molecular target: SlyD F96N, C-terminally His-tagged (E. coli, UniProt P0A9K9 1-196, F96N); experiment: ITC
[8] = molecular target: SlyD E89A, C-terminally His-tagged (E. coli, UniProt P0A9K9 1-196, E89A); experiment: ITC
[9] = molecular target: SlyD F84N/F96N, C-terminally His-tagged (E. coli, UniProt P0A9K9 1-196, F84N | F96N); experiment: ITC
[10] = molecular target: SlyD E113A, C-terminally His-tagged (E. coli, UniProt P0A9K9 1-196, E113A); experiment: ITC
[11] = molecular target: SlyD F96A, C-terminally His-tagged (E. coli, UniProt P0A9K9 1-196, F96A); experiment: ITC
[12] = molecular target: SlyD F84N, C-terminally His-tagged (E. coli, UniProt P0A9K9 1-196, F84N); experiment: ITC
[13] = molecular target: SlyD F96G, C-terminally His-tagged (E. coli, UniProt P0A9K9 1-196, F96G); experiment: ITC
[14] = molecular target: single-exchange SlyD variants of the hydrophobic active site (F84A, F84N, F96A, F96G, F96N); experiment: ITC; VP-ITC, 30°C, 10 mM potassium phosphate pH 7.6 or 7.8; His-tagged SlyD or variant 30 μM in the cell; HiPIP precursor injected, 200 μM (Fig 3) or 100 μM (Fig 4)
[15] = molecular target: T6, SlyD E73A, C-terminally hexahistidine-tagged (Escherichia coli, UniProt P0A9K9 1-196, E73A); experiment: ITC; VP-ITC, 30°C, 10 mM potassium phosphate buffer (pH 7.6 or 7.8); SlyD variant 30 μM in the cell, HiPIP precursor 100 μM injected (2x 22 injections of 10 μL); conditions: both partners purified
T6 construct: SlyD of Escherichia coli (FKBP-type prolyl isomerase and chaperone); not shown: His6, C-terminal, kept
T6 sequence: T1 sequence with E73A

[16] = molecular target: T7, SlyD E89A, C-terminally hexahistidine-tagged (Escherichia coli, UniProt P0A9K9 1-196, E89A); experiment: as above; conditions: both partners purified
T7 construct: SlyD of Escherichia coli (FKBP-type prolyl isomerase and chaperone); not shown: His6, C-terminal, kept
T7 sequence: T1 sequence with E89A

[17] = molecular target: T8, SlyD D115A, C-terminally hexahistidine-tagged (Escherichia coli, UniProt P0A9K9 1-196, D115A); experiment: as above; conditions: both partners purified
T8 construct: SlyD of Escherichia coli (FKBP-type prolyl isomerase and chaperone); not shown: His6, C-terminal, kept
T8 sequence: T1 sequence with D115A

[18] = molecular target: T9, SlyD Y68S, C-terminally hexahistidine-tagged (Escherichia coli, UniProt P0A9K9 1-196, Y68S); experiment: as above; conditions: both partners purified
T9 construct: SlyD of Escherichia coli (FKBP-type prolyl isomerase and chaperone); not shown: His6, C-terminal, kept
T9 sequence: T1 sequence with Y68S

[19] = molecular target: T10, SlyD E113A, C-terminally hexahistidine-tagged (Escherichia coli, UniProt P0A9K9 1-196, E113A); experiment: as above; conditions: both partners purified
T10 construct: SlyD of Escherichia coli (FKBP-type prolyl isomerase and chaperone); not shown: His6, C-terminal, kept
T10 sequence: T1 sequence with E113A

Molecule: HiPIP precursor with an RR>KK exchange (from UniProt P00260 38-122) (natural protein)
- Kd [1]: 1180 nM
- dH [1]: -7.7 kcal/mol

B1: twin-lysine peptide in an oligoglycine environment (GGGGGXXGGGGGG, X = K) (peptide)
peptide: Ac-GGGGGKKGGGGGG-{βAla-βAla-cellulose membrane}
notes: the printed pattern GGGGGXXGGGGGG with X = K; The acetyl group and the spacer are told in the methods for the spot synthesis in general; also called lysines in a glycine environment; source: synthetic peptide, spot synthesis on cellulose membrane
- binding result [2]: binds

B2: wild type HiPIP precursor from Allochromatium vinosum (natural protein, UniProt P00260 1-122, looked up)
chain: MSDKPISKSRRDAVKVMLGTAAAIPMINLVGFGTARASAPANAVAADDATAIALKYNQDATKSERVAAARPGLPPEEQHCANCQFMQADAAGATDEWKGCQLFPGKLINVNGWCASWTLKAG
notes: HiPIP (high-potential iron-sulfur protein), Allochromatium vinosum; the precursor with its Tat signal peptide; Called a fully folded Tat substrate; also called RR-HiPIP; signal-peptide-containing HiPIP precursor
- Kd [3]: 950 nM
- Kd [4]: 1820 nM
- Kd [5]: ~350 nM
- dH [5]: ~-9.06 kcal/mol
- Kd [6]: 400 nM
- Kd [7]: 8900 nM
- Kd [8]: 400 nM
- Kd [9]: > 360000 nM
- Kd [10]: 500 nM
- Kd [11]: 4900 nM
- Kd [12]: 6600 nM
- Kd [13]: 5700 nM
- Kd [14]: 4000 to 10000 nM

B3: HiPIP precursor (RR-HiPIP) from Allochromatium vinosum (natural protein)
chain: B2 chain
modifications: HiPIP precursor; fully folded, [4Fe-4S] cluster presumed; signal peptide retained
- Kd [15]: 321 nM
- Kd [16]: 380 nM
- Kd [17]: 272 nM
- Kd [18]: 299 nM
- Kd [19]: 493 nM

B4: HiPIP precursor with an RR>QQ exchange (natural protein)
chain: B2 chain with R10Q, R11Q
modifications: HiPIP precursor; [4Fe-4S] cluster presumed; RR>QQ positions derived from primer hip-QQ-F, which encodes DKPISKSQQDAVKVML
- Kd [5]: 38700 ± 2000 nM

B5: twin-arginine peptide in an oligoglycine environment (GGGGGXXGGGGGG, X = R) (peptide)
peptide: Ac-GGGGGRRGGGGGG-{βAla-βAla-cellulose membrane}
notes: the printed pattern GGGGGXXGGGGGG with X = R; The acetyl group and the spacer are told in the methods for the spot synthesis in general; also called arginines in a glycine environment; source: synthetic peptide, spot synthesis on cellulose membrane
- binding result [2]: binds
